Experiments:
FGFR1 = FGFR1 (UniProt P11362); assay: phosphorylation enrichment, bacterial display (enrichment ratio); higher = better substrate or ligand; peptides without Tyr show the background
FGFR3 = FGFR3 (UniProt P22607); assay: as above
c-Src = assay: as above
c-Abl (mouse) = assay: as above
Jak2 = Jak2 (UniProt O60674); assay: as above
Fes = Fes (UniProt P07332); assay: as above
Fer (mouse) = assay: as above
Hck = Hck (UniProt P08631); assay: as above
Fyn = Fyn (UniProt P06241); assay: as above
EPHB1 = EPHB1 (UniProt P54762); assay: as above
MERTK = MERTK (UniProt Q12866); assay: as above
EPHB2 = EPHB2 (UniProt P29323); assay: as above
AncSZ = assay: as above
SHP2-C SH2 = assay: SH2 binding enrichment of the phosphorylated peptide, bacterial display (enrichment ratio); higher = better substrate or ligand; peptides without Tyr show the background
Grb2 SH2 = Grb2 SH2 (UniProt P62993); assay: as above
c-Src SH2 = assay: as above
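Throughout, for SH2 binding enrichment of the phosphorylated peptide, bacterial display: peptide library displayed on the E. coli surface as eCPX fusions, selected cells deep-sequenced, score is each peptide's frequency after selection divided by its frequency in the input.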
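Throughout, for phosphorylation enrichment, bacterial display: 11-residue human phosphosite peptides and single-mutation variants displayed on the E. coli surface, counted by deep sequencing, each peptide's frequency after selection divided by its frequency in the unselected input library; frequency after pTyr selection over input frequency; kinase dosed for 20-30% of maximal phosphorylation in three min.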

Sequence of EPHB2 (P29323 whole entry, looked up): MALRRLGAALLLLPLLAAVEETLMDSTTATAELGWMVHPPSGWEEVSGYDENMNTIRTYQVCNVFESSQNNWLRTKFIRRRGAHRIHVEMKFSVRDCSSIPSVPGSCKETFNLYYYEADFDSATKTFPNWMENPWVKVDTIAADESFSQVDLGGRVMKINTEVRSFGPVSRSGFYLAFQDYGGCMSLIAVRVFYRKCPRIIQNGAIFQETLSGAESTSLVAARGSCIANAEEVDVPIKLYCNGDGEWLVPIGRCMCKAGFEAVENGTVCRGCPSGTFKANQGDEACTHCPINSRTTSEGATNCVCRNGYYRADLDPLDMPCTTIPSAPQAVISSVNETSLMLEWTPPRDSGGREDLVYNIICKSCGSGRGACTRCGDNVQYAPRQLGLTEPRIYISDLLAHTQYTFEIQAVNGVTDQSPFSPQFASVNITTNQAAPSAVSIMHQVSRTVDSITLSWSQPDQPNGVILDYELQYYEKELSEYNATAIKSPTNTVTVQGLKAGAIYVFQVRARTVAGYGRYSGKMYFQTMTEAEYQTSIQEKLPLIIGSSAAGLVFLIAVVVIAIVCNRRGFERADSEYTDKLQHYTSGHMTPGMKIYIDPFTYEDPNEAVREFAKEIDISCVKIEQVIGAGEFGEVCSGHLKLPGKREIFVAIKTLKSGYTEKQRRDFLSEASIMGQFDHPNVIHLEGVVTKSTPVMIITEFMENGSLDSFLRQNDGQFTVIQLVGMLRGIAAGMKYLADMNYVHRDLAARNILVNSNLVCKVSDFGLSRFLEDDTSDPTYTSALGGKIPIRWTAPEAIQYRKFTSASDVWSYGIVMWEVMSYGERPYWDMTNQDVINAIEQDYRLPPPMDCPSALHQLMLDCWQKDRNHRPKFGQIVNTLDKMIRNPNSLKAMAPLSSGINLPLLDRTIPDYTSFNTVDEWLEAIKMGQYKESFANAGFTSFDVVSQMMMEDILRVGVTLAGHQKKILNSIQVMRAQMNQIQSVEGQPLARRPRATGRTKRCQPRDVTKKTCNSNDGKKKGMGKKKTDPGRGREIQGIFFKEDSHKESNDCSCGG
Sequence of MERTK (Q12866 whole entry, looked up): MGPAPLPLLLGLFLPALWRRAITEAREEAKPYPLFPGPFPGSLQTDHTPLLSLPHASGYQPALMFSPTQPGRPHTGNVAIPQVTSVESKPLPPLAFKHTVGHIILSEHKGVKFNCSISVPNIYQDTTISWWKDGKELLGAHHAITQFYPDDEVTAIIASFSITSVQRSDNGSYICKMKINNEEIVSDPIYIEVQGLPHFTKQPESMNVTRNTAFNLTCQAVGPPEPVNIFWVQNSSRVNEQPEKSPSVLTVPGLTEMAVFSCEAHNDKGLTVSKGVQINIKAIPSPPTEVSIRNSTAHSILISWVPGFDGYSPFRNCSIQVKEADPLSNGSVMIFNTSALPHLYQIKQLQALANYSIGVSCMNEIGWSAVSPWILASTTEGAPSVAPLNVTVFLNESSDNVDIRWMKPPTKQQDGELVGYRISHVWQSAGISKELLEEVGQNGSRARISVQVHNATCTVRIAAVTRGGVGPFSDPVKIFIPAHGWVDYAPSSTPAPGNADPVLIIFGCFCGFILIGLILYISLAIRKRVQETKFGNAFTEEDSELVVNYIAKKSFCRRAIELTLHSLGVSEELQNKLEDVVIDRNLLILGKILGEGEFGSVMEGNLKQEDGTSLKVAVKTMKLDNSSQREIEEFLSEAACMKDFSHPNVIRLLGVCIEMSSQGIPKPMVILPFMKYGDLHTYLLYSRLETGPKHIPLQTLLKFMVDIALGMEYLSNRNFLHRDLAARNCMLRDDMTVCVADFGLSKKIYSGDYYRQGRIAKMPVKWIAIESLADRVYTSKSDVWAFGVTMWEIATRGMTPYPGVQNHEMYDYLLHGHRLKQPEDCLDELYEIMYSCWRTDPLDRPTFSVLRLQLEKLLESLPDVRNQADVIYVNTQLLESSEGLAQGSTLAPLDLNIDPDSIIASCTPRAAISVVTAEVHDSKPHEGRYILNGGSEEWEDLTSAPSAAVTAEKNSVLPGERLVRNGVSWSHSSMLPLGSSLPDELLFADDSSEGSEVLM
Sequence of Fyn (P06241 whole entry, looked up): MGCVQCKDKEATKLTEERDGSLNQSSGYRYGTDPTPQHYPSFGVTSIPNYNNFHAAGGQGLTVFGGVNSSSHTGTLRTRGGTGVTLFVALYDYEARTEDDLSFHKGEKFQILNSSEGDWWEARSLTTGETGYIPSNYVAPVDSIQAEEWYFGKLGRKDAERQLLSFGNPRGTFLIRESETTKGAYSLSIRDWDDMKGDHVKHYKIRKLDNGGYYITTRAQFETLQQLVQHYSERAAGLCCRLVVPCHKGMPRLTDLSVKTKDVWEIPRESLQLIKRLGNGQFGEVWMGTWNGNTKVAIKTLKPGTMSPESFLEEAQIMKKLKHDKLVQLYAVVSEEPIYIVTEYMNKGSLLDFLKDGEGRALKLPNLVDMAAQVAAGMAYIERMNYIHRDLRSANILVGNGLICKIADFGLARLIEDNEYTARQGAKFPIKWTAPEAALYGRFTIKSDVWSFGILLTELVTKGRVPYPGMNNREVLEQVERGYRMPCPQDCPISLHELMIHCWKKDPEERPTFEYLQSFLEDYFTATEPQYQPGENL
Sequence of EPHB1 (P54762 whole entry, looked up): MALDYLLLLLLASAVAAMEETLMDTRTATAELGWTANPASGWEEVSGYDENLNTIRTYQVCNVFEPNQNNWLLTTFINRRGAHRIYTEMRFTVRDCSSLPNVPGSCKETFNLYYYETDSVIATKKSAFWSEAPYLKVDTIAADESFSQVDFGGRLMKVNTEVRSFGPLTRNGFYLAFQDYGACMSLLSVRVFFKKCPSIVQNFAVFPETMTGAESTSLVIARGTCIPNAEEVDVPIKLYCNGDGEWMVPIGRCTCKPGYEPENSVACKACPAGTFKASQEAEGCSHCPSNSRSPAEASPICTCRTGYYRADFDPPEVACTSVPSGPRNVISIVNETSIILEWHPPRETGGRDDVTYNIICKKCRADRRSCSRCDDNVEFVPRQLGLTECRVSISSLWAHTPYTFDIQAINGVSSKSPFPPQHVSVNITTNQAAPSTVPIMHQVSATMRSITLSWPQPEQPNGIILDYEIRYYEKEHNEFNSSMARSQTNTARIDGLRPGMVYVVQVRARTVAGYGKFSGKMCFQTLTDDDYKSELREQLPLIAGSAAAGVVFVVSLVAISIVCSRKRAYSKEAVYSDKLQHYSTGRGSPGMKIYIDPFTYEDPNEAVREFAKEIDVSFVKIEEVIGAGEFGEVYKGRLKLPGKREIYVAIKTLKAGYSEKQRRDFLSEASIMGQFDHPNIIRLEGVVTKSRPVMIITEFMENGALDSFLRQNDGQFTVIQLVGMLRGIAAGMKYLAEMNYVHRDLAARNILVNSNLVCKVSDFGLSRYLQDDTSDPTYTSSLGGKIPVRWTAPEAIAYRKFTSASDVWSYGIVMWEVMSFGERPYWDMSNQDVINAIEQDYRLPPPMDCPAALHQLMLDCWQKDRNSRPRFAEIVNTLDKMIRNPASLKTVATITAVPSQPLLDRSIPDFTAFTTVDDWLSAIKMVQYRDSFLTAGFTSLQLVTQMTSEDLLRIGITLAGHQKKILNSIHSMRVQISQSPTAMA
Sequence of FGFR1 (P11362 whole entry, looked up): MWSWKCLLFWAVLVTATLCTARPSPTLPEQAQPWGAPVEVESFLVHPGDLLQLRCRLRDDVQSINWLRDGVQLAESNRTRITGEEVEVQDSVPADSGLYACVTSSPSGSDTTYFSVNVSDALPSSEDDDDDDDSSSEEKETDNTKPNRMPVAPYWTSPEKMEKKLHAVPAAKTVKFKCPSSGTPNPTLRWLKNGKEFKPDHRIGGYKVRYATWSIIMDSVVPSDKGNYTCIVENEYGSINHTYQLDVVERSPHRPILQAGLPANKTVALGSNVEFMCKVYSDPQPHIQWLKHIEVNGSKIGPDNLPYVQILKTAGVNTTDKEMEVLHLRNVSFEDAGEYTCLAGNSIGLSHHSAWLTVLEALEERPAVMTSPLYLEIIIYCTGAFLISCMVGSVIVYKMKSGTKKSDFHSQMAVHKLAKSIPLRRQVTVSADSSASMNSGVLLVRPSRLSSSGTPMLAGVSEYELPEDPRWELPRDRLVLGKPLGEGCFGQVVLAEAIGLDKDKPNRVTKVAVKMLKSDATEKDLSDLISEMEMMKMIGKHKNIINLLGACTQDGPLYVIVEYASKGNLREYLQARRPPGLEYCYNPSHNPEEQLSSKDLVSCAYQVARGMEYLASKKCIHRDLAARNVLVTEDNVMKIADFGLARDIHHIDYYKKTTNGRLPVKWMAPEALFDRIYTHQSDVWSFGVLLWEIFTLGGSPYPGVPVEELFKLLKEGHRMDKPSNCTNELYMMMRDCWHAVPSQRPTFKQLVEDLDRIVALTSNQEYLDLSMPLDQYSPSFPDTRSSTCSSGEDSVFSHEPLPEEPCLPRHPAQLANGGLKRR
Sequence of Hck (P08631 whole entry, looked up): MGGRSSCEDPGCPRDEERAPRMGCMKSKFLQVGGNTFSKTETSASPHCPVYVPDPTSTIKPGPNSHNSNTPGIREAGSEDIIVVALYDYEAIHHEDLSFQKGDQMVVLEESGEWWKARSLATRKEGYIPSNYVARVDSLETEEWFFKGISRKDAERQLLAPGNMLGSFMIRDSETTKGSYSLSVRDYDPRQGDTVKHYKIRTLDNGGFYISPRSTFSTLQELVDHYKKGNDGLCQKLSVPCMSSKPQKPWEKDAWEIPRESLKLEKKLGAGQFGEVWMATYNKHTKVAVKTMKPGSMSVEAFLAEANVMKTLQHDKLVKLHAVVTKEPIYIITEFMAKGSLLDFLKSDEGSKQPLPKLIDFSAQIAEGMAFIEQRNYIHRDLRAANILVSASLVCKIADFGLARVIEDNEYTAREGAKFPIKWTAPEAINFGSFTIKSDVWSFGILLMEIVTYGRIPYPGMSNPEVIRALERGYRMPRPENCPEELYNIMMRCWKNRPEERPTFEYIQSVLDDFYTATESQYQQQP

Row | Sequence | SH2 binding enrichment (SHP2-C SH2) | SH2 binding enrichment (Grb2 SH2) | SH2 binding enrichment (c-Src SH2) | phosphorylation enrichment (FGFR1) | phosphorylation enrichment (FGFR3) | phosphorylation enrichment (c-Src) | phosphorylation enrichment (c-Abl (mouse)) | phosphorylation enrichment (Jak2) | phosphorylation enrichment (Fes) | phosphorylation enrichment (Fer (mouse)) | phosphorylation enrichment (Hck) | phosphorylation enrichment (Fyn) | phosphorylation enrichment (EPHB1) | phosphorylation enrichment (MERTK) | phosphorylation enrichment (EPHB2) | phosphorylation enrichment (AncSZ)
1 | SMAKFYASGIA [ACADSB_Y373_E376G_YF] | 1 | 0.701 | 0.359 | 0.428 | 0.561 | 0.352 | 0.51 | 0.677 | 0.636 | 0.369 | 0.469 | 0.461 | 0.344 | 0.464 | 0.485 | 0.738
2 | AKGMKYLASKK [MET_Y1194] | 0.557 | 0.975 | 0.553 | 0.341 | 0.311 | 0.406 | 0.445 | 0.489 | 0.536 | 0.379 | 0.394 | 0.354 | 0.244 | 0.335 | 0.324 | 0.482
3 | ATAKGYEPDAS [OTC_Y223_P220A] | 0.598 | 0.836 | 0.494 | 0.481 | 0.549 | 0.461 | 0.598 | 0.684 | 0.784 | 0.473 | 0.483 | 0.441 | 0.523 | 0.416 | 0.523 | 0.883
4 | RASDFYSQQMA [GBP6_Y334_A331S_YF] | 0.575 | 0.739 | 0.649 | 0.444 | 0.605 | 0.675 | 0.738 | 0.688 | 0.682 | 0.37 | 0.539 | 0.423 | 0.708 | 0.957 | 0.683 | 0.755
5 | LITTPYIGFLG [KCNQ1_Y267_L266P] | 2.18 | 0.781 | 0.492 | 0.616 | 0.641 | 1.35 | 0.528 | 0.983 | 1.35 | 0.667 | 0.473 | 0.782 | 0.449 | 0.554 | 0.5 | 0.834
6 | PLDNLYAEPAV [PRPS1_Y146_V142L] | 0.655 | 0.995 | 0.486 | 0.719 | 1.09 | 2.06 | 10.6 | 1.83 | 1.66 | 4.92 | 4.65 | 2.13 | 9.6 | 8.88 | 12.9 | 2.72
7 | LIGRRYDDPEV [HSPA9_Y128] | 0.5 | 0.674 | 0.822 | 0.643 | 0.9 | 1.27 | 1.25 | 1.35 | 2.17 | 0.809 | 0.707 | 0.836 | 1.11 | 0.889 | 1.63 | 2.69
8 | RGDIFYTSKLW [AKR1C3_Y81_E77G] | 0.888 | 0.919 | 0.55 | 0.923 | 1.09 | 0.735 | 0.889 | 1.33 | 1.59 | 0.648 | 0.46 | 0.611 | 0.964 | 0.803 | 0.963 | 1.72
9 | NGEDPYAGSTD [XRCC1_Y515] | 0.782 | 0.638 | 0.547 | 0.646 | 0.67 | 0.55 | 0.779 | 0.809 | 1.1 | 0.431 | 0.581 | 0.524 | 0.431 | 0.399 | 0.508 | 1.21
10 | SSDKVYAHQMV [MLH1_Y379] | 0.594 | 0.792 | 0.44 | 0.379 | 0.416 | 0.514 | 0.537 | 0.431 | 0.573 | 0.494 | 0.458 | 0.538 | 0.404 | 0.476 | 0.401 | 0.551
11 | VECRVYAEDPF [PCCA_Y401_YF] | 0.426 | 0.674 | 0.54 | 0.495 | 0.845 | 0.693 | 1.11 | 1.6 | 1.68 | 0.669 | 0.578 | 0.553 | 0.766 | 0.481 | 0.677 | 1.43
12 | GNHVSYYQSDG [CACNA1C_Y1757] | 0.802 | 0.806 | 0.902 | 0.718 | 0.81 | 0.574 | 0.621 | 0.667 | 0.762 | 0.49 | 0.57 | 0.462 | 0.557 | 0.81 | 0.485 | 0.774
13 | IRGNMYYENSY [EGFR_Y112] | 0.897 | 4.75 | 4.19 | 0.58 | 0.665 | 0.526 | 0.449 | 0.55 | 0.733 | 0.535 | 0.603 | 0.468 | 0.486 | 1.06 | 0.594 | 0.761
14 | QNVADYMRCLM [RPL5_Y207_Y210C] | 0.725 | 0.912 | 0.624 | 0.753 | 0.969 | 0.444 | 0.911 | 1.37 | 1.62 | 0.797 | 0.652 | 0.729 | 1.03 | 0.42 | 0.801 | 1.68
15 | PNKAVYTKMMT [G6PD_Y401_E398K] | 4.8 | 0.959 | 3.63 | 0.661 | 0.423 | 0.601 | 0.426 | 0.59 | 0.562 | 0.656 | 0.437 | 0.422 | 0.467 | 0.332 | 0.519 | 0.65
16 | ASTDYNKRGDF [PDHA1_Y243_Y243N] | 0.512 | 0.954 | 0.446 | 0.421 | 0.402 | 0.47 | 0.469 | 0.468 | 0.599 | 0.378 | 0.332 | 0.456 | 0.348 | 0.405 | 0.474 | 0.502
17 | PFRSIYFSSPK [MPG_Y75_YF] | 0.565 | 0.843 | 0.447 | 0.599 | 0.809 | 0.669 | 0.398 | 0.553 | 0.666 | 0.595 | 1.11 | 0.658 | 0.382 | 0.463 | 0.571 | 0.851
18 | PPGRSYSPCDF [TNS1_Y793_Y796C_YF] | 0.839 | 1.25 | 0.696 | 0.716 | 0.816 | 0.649 | 0.902 | 0.679 | 1.16 | 0.689 | 0.639 | 0.431 | 0.895 | 0.676 | 0.858 | 1.01
19 | YKPGFYNLKEK [LAMA1_Y490_C485Y] | 1.5 | 1.27 | 0.814 | 0.352 | 0.402 | 0.491 | 0.971 | 0.891 | 0.628 | 0.432 | 0.397 | 0.421 | 0.343 | 0.366 | 0.431 | 0.659
20 | RNVLVYDKLNV [ROR2_Y624] | 0.535 | 1.06 | 0.908 | 0.614 | 0.787 | 3.99 | 2.12 | 0.632 | 0.64 | 3.9 | 13.9 | 5.08 | 1.97 | 3.88 | 1.97 | 0.933

The next lines start with results.

Row | SH2 binding enrichment (SHP2-C SH2) | SH2 binding enrichment (Grb2 SH2) | SH2 binding enrichment (c-Src SH2) | Sequence | phosphorylation enrichment (FGFR1) | phosphorylation enrichment (FGFR3) | phosphorylation enrichment (c-Src) | phosphorylation enrichment (c-Abl (mouse)) | phosphorylation enrichment (Jak2) | phosphorylation enrichment (Fes) | phosphorylation enrichment (Fer (mouse)) | phosphorylation enrichment (Hck) | phosphorylation enrichment (Fyn) | phosphorylation enrichment (EPHB1) | phosphorylation enrichment (MERTK) | phosphorylation enrichment (EPHB2) | phosphorylation enrichment (AncSZ)
21 | 0.698 | 0.739 | 0.475 | SENAFYLSPDI [COL6A3_Y2827] | 0.762 | 0.841 | 0.607 | 1.49 | 1.68 | 1.21 | 0.724 | 0.687 | 0.607 | 0.793 | 0.754 | 0.687 | 1.69
22 | 6.79 | 0.899 | 9.6 | RPSRQYATLDV [SCAMP3_Y35] | 0.37 | 0.336 | 0.319 | 0.381 | 0.42 | 0.461 | 0.313 | 0.376 | 0.315 | 0.331 | 0.379 | 0.33 | 0.373
23 | 0.528 | 0.671 | 0.435 | DPEATYTTSGG [EPHA2_Y772] | 0.502 | 0.754 | 0.789 | 0.943 | 1.09 | 1.19 | 0.502 | 0.591 | 0.523 | 0.533 | 0.418 | 0.57 | 1.22
24 | 0.88 | 0.68 | 0.414 | SNMPTYSGHFT [GRIN2A_Y1224] | 0.354 | 0.428 | 2.04 | 0.457 | 0.653 | 0.557 | 3.39 | 1.47 | 1.71 | 0.636 | 0.74 | 0.602 | 0.529
25 | 0.432 | 0.667 | 0.435 | FLRKEYGGLNV [CBR3_Y81] | 0.393 | 0.437 | 0.334 | 0.412 | 0.615 | 0.618 | 0.375 | 0.404 | 0.45 | 0.4 | 0.385 | 0.519 | 0.584
26 | 0.811 | 1.16 | 0.613 | NNRVFYGNSDC [RS1_Y177_R182C] | 0.467 | 0.62 | 0.381 | 0.742 | 0.862 | 0.863 | 0.432 | 0.429 | 0.434 | 0.489 | 0.369 | 0.486 | 0.954
27 | 0.743 | 0.668 | 0.445 | HQPGEYIFHAE [FLT3_Y416] | 0.819 | 1.28 | 0.852 | 1.11 | 1.29 | 1.29 | 0.795 | 1.21 | 0.915 | 0.887 | 0.74 | 1.12 | 1.77
28 | 1.46 | 1.12 | 0.787 | ILTLKYPIKHG [ACTA1_Y71_E74K] | 0.449 | 0.497 | 0.341 | 0.367 | 0.558 | 0.588 | 0.413 | 0.349 | 0.431 | 0.426 | 0.344 | 0.518 | 0.523
29 | 0.606 | 0.788 | 1.25 | YDEYRYRSVIK [CFTR_Y517] | 0.435 | 0.67 | 2.15 | 1.05 | 1.16 | 0.973 | 0.529 | 1.14 | 1.76 | 0.584 | 0.706 | 0.589 | 1.04
30 | 0.913 | 1.25 | 1.3 | GTHCHYKAPTV [FZD9_Y569] | 0.493 | 0.51 | 0.485 | 3.71 | 0.667 | 0.79 | 0.505 | 0.429 | 0.442 | 0.421 | 0.442 | 0.39 | 0.648
31 | 0.837 | 0.841 | 0.619 | ILGTFYETGSI [PAX2_Y73_R71T_YF] | 0.582 | 0.526 | 0.529 | 0.587 | 0.871 | 0.956 | 0.749 | 0.621 | 0.524 | 0.466 | 0.568 | 0.541 | 0.773
32 | 0.579 | 0.709 | 1 | PYYASYPPSPD [GDAP2_Y491_T489A] | 4.96 | 3.53 | 7.56 | 4.3 | 1.25 | 1.15 | 0.915 | 4.78 | 10.7 | 10.8 | 11.2 | 17.7 | 1.41
33 | 1.01 | 0.869 | 0.941 | HLWRIYYDITD [MMP27_Y307] | 4.63 | 3.87 | 4.21 | 1.86 | 3.36 | 3.16 | 1.64 | 3.14 | 2.6 | 9.72 | 1.77 | 4.96 | 3.29

Source: the supplement of paper PMC10065799, “High-throughput profiling of sequence recognition by tyrosine kinases and SH2 domains using bacterial peptide display” (eLife, 2023)
